Reference: patent US20040171000A1

Molecular target: human telomerase (active telomerase from HeLa cell nuclear extract; catalytic subunit hTERT) (human) (UniProt O14746)
Assay: cell-based or functional assay

Chain of human telomerase (active telomerase from HeLa cell nuclear extract; catalytic subunit hTERT) (human) (O14746 whole entry): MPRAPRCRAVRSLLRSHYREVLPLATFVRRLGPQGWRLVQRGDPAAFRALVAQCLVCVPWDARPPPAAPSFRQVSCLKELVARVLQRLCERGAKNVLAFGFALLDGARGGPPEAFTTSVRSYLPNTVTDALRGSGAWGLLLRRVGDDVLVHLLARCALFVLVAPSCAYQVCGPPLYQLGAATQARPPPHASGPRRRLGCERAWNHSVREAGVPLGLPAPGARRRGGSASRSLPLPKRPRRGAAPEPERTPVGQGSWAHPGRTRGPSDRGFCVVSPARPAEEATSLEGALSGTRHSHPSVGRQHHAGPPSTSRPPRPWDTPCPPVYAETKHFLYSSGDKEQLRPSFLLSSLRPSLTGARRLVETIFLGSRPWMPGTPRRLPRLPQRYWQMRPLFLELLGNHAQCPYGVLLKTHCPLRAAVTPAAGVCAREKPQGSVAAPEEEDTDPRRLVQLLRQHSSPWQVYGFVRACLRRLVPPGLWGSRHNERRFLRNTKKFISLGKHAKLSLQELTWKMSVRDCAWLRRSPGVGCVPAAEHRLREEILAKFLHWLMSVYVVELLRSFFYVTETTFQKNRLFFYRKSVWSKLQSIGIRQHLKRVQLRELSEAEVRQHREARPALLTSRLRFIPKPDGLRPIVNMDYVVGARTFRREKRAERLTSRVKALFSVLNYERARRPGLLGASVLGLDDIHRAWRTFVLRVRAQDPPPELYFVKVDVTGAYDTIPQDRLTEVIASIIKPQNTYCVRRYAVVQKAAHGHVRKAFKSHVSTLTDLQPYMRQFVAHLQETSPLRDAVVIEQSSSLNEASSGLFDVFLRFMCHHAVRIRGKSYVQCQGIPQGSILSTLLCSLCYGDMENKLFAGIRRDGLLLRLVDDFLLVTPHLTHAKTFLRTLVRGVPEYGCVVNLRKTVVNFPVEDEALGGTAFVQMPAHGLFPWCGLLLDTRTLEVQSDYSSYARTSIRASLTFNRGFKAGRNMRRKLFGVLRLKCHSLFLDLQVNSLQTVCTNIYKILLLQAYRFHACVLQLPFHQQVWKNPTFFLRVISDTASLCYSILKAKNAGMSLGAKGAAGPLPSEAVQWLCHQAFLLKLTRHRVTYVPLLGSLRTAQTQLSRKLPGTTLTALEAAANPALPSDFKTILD

telomerase activity immunoprecipitated by antibodies to SEQ ID No 7: 70%
Substance: EST1-0732 (human EST1 protein of SEQ ID No 2) (from UniProt Q86US8 1-1419)
